From patent publication US20160138027A1 (Stanford University, published 2016)

Key:
[1] = target: T1, LRS (human, UniProt Q9P2J5 1-1176); assay: FLAG co-immunoprecipitation from HEK293T lysates, western blot
T1 construct: Endogenous protein probed in the co-immunoprecipitate; also called Leucyl tRNA synthetase

[2] = target: T2, Rictor (human, UniProt Q6R327 1-1708); assay: FLAG co-immunoprecipitation from cross-linked HEK293T lysates, western blot (FIG. 6C)
T2 construct: Endogenous protein probed in the co-immunoprecipitate
T2 sequence (Q6R327 whole entry): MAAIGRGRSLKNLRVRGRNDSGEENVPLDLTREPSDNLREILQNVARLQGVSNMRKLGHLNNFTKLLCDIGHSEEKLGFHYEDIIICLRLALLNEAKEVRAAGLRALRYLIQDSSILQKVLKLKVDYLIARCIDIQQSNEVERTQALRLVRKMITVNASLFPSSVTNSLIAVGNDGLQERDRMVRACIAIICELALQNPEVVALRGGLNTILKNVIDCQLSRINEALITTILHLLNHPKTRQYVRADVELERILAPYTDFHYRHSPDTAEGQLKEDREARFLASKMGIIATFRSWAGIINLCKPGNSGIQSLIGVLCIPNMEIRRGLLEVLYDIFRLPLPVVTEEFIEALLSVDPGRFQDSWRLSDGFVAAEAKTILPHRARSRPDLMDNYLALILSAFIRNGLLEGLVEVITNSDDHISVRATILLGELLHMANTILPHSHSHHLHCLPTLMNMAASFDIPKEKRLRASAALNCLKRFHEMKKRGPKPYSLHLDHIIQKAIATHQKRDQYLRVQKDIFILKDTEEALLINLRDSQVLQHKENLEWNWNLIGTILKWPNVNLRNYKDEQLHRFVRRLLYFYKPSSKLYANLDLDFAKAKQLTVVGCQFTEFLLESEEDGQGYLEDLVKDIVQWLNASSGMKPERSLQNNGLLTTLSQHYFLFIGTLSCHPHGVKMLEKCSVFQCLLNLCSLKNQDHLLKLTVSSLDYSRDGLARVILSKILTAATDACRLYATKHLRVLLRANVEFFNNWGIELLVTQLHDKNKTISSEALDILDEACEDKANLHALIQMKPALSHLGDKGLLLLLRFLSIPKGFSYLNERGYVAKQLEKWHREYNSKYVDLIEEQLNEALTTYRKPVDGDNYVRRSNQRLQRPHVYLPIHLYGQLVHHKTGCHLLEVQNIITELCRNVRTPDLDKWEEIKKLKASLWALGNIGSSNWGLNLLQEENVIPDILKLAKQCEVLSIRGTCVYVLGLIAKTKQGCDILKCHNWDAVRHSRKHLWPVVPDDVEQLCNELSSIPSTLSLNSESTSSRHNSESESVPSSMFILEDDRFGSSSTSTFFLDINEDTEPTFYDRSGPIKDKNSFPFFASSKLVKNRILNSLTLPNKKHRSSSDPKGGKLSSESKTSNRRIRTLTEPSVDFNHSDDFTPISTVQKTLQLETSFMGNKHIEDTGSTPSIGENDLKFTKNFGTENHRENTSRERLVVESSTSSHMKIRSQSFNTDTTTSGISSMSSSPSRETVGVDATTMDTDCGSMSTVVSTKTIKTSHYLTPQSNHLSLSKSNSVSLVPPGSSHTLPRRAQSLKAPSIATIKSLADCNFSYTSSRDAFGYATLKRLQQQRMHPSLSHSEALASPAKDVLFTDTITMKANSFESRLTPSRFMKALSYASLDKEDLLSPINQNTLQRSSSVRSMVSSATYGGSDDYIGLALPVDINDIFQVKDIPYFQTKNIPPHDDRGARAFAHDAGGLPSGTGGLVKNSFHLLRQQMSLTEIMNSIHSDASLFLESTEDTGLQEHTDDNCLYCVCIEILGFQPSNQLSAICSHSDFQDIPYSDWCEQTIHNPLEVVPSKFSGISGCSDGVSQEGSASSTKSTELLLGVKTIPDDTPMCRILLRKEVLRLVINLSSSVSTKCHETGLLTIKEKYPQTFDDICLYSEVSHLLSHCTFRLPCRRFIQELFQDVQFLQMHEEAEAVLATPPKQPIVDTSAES
Protocol: (§1) HEK293T cells were transfected with either MORTOR-3×FLAG or FLAG alone for 22 or 42 hours later. Cells were then starved of amino acids and serum for 4 hours and re-stimulated with amino acids for 5 minutes or left untreated. Cells were cross-linked and harvested and FLAG immunoprecipitation was used to test for interactions with endogenous proteins. […] HEK293T cells were transfected with either MORTOR-3×FLAG, MORTOR-1×FLAG (CMV), or FLAG only and treated as in FIG. 6A.
(§2) One day before transfection, 2,000,000 HEK293T cells were plated in 10 cm culture dishes. The cells were transfected with 2 μg of cDNA expression vectors using Lipofectamine 2000 (Life Technologies). Four hours after transfection, the cells were washed and incubated in DMEM with 10% FBS without antibiotics for 18 hours. When amino acid sensitivity was investigated, cells were transfected for 18 or 38 hours followed by 4 hours of amino acid starvation. The cells were then stimulated with amino acid for 7 minutes. The cells were incubated in Triton X-100 lysis buffer (1% Triton X-100, 40 mM HEPES pH 7.4, 2 mM EDTA, 200 mM NaCl, phosSTOP and protease inhibitor cocktail (Roche)) for 1 hour, followed by sonication at 4° C. For in-cell crosslinking experiments, DSP was used as previously described (Sancak, Y., et al. (2008) “The Rag GTPases Bind Raptor and Mediate Amino Acid Signaling to MTORC1,” Science, 320:1496-1501) prior to cell lysis. The lysates were centrifuged at 20,000×g for 30 minutes. For immunoprecipitation, primary antibodies were cross-linked to Protein G beads (Life technologies) using DMP (Thermo scientific). For anti-FLAG-immunoprecipitation, the FLAG-M2 affinity gel (Life technologies) was used. The cleared lysates were incubated with the beads at 4° C. for 2 hours or overnight. The beads were washed five times with ice-cold lysis buffer. Immunoprecipitated proteins were denatured in the SDS sample buffer and separated by SDS-PAGE. The intensity of bands were quantified using ImageJ (NIH).

[3] = target: T3, ATP6V1A (human, UniProt P38606 1-617); assay: as above
T3 construct: Endogenous protein probed in the co-immunoprecipitate
T3 sequence (P38606 whole entry): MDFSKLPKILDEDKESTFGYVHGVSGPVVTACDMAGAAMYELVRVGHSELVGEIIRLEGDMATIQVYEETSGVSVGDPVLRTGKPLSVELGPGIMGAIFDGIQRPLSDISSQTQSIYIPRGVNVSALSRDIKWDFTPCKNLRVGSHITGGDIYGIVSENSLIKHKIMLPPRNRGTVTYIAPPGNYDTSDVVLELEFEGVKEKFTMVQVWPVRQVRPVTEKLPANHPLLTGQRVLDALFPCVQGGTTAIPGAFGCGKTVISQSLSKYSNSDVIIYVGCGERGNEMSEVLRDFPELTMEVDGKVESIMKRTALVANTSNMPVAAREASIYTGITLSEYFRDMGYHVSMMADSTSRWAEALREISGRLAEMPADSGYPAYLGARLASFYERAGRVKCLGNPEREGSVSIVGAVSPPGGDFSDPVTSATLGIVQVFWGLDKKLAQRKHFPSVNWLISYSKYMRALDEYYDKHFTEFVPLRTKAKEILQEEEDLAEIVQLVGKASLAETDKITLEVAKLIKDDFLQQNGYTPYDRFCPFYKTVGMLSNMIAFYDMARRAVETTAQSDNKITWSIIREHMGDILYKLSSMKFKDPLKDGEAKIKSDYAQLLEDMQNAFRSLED
Protocol: as §1, §2

[4] = target: T4, p62 (human, UniProt Q13501 2-440); assay: as above
T4 construct: Endogenous protein probed with anti-p62 from BD Transduction Laboratories
Protocol: as §1, §2

T1 sequence (Q9P2J5 whole entry): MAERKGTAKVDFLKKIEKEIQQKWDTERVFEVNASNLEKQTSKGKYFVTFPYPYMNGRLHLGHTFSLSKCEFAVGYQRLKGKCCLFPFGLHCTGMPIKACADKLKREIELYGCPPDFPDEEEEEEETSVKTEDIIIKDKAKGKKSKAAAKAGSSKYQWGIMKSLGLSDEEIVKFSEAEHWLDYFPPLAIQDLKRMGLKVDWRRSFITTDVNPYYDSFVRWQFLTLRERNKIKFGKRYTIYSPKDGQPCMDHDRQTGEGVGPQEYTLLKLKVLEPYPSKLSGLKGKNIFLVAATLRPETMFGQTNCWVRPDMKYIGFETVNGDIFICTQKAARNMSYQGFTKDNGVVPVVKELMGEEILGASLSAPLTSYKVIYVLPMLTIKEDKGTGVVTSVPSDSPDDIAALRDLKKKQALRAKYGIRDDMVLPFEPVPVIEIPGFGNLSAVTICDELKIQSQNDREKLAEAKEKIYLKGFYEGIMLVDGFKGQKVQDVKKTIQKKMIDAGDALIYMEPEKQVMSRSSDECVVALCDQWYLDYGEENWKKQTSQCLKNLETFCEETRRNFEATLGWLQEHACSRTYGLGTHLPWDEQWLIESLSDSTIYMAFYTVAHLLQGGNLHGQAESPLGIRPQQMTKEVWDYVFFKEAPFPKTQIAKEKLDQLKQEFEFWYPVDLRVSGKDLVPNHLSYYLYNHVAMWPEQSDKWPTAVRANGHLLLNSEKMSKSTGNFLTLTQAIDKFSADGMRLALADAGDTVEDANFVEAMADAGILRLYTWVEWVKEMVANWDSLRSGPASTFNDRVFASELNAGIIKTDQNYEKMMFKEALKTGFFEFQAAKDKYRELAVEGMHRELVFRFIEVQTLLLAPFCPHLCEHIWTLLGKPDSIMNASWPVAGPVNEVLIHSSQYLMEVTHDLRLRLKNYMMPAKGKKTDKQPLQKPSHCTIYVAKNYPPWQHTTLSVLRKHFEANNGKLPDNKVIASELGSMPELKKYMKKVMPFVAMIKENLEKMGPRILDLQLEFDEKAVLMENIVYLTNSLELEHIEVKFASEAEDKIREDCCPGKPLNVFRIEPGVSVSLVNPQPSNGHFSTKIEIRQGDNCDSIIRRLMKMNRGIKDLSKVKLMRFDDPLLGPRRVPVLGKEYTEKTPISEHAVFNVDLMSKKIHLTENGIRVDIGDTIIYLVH

binding result [1]: no binding
binding result [2]: no binding
binding result [3]: no binding
binding result [4]: no binding
B1: MORTOR-3×FLAG (receptor)
chain: MRPERPRPRGSAPGPMETPPWDPARNDSLPPTLTPAVPPYVKLGLTVVYTVFYALLFVFIYVQLWLVLRYRHKRLSYQSVFLFLCLFWASLRTVLFSFYFKDFVAANSLSPFVFWLLYCFPVCLQFFTLTLMNLYFTQVIFKAKSKYSPELLKYRLPLYLASLFISLVFLLVNLTCAVLVKTGNWERKVIVSVRVAINDTLFVLCAVSLSICLYKISKMSLANIYLESKGSSVCQVTAIGVTVILLYTSRACYNLFILSFSQNKSVHSFDYDWYNVSDQADLKNQLGDAGYVLFGVVLFVWELLPTTLVVYFFRVRNPTKDLTNPGMVPSHGFSPRSYFFDNPRRYDSDDDLAWNIAPQGLQGGFAPDYYDWGQQTNSFLAQAGTLQDSTLDPDKPSLG
notes: Expressed from pBMN-GPR137b-3×FLAG in HEK293T or HeLa cells and immunoprecipitated from lysates on FLAG-M2 gel; also called GPR137b-3×FLAG; MORTOR-FLAG; not shown: 3×FLAG tag
